Several values for one entry are separate records, joined by “and”; a condition that tells them apart may be missing. Equal entries are not always repeated.
B1: Adenosine receptor A2a, P29274 (parent)
chain: MPIMGSSVYITVELAIAVLAILGNVLVCWAVWLNSNLQNVTNYFVVSLAAADIAVGVLAIPFAITISTGFCAACHGCLFIACFVLVLTQSSIFSLLAIAIDRYIAIRIPLRYNGLVTGTRAKGIIAICWVLSFAIGLTPMLGWNNCGQPKEGKNHSQGCGEGQVACLFEDVVPMNYMVYFNFFACVLVPLLLMLGVYLRIFLAARRQLKQMESQPLPGERARSTLQKEVHAAKSLAIIVGLFALCWLPLHIINCFTFFCPDCSHAPLWLMYLAIVLSHTNSVVNPFIYAYRIREFRQTFRKIIRSHVLRQQEPFKAAGTSARVLAAHGSDGEQVSLRLNGHPPGVWANGSAPHPERRPNGYALGLVSGGSAQESQGNTGLPDVELLSHELKGVCPEPPGLDDPLAQDGAGVS

Variants of: B1
Settings: Homo sapiens; pH 7.4; Thermal; Activity; Tris 50 mM; NaCl 0.4 M; structure 4UHR; whole UniProt chain shown

Variant	Tm	change of melting temperature, mutant - wild type (higher = more stable)
A54L A204L	33 °C	2 °C
A54L H75A T88A V239A	40 °C and 44 °C	9 °C and 12 °C
A54L H75A V239A	37 °C	6 °C
A54L K122A	35 °C and 40 °C	4 °C and 8 °C
A54L K122A L235A	47 °C and 48 °C	16 °C
A54L L235A	42 °C and 45 °C	11 °C and 13 °C
A54L T88A	39 °C	8 °C
A54L T88A V239A	46 °C	14 °C
A54L V57A	31 °C	0 °C
A54L V239A	40 °C and 42 °C	9 °C and 10 °C
G114A G118A	31 °C	11 °C
K122A L235A	37 °C	6 °C
L167A A184L L272A	27 °C	7 °C
L167A A184L R199A H230A	31 °C	11 °C
L167A A184L R199A L241A L272A	29 °C	9 °C
A184L A203L	30 °C	10 °C
A203L A204L	40 °C and 42 °C	9 °C and 10 °C
Q210A E219A	31 °C	11 °C
S223A T224A Q226A K227A	24 °C	4 °C
A231L L235A V239A	38 °C	7 °C
P260A L267A	31 °C and 30 °C	
T279A N284A	29 °C	9 °C
A54L T88A A204L V239A		10 °C and 15 °C
